This is an account of results in US20230203435A1 (SYSMEX, published 2023).

The target of test [1] is T1, interleukin 8 (CXCL8) (Shenandoah Biotechnology, Inc.) (UniProt P10145 28-99, limits assumed).
T1 construct: Bought reagent, coated on the ELISA plate; also called IL-8
T1 sequence (looked up): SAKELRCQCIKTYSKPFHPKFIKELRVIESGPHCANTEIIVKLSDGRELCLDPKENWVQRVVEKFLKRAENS
The test is described as follows: ELISA, antigen coated at 5 ug/mL, HRP anti-human IgG Fc detection. The protocol: (§1) The affinity of each antibody for an antigen was measured by ELISA method. As antigens of each antibody, human CD20/MS4A1 full-length protein, His tag (HEK293) (ACROBiosystems Inc.), recombinant human ErbB2/Her2 Fc chimera (R&D Systems Inc.), chicken egg white-derived lysozyme (Sigma-Aldrich), animal free recombinant human IL-6 (PeproTech Inc.) and interleukin 8 (CXCL8) (Shenandoah Biotechnology, Inc.) were used. Specific operations are as follows. A solution of various antigens diluted to 5 μg/mL with PBS was added to each well of a 96-well plate (Nunc), and the plate was incubated at 4° C. overnight. After removing the solution from each well, 1% BSA/PBS was added, and the plate was incubated at room temperature for 3 hours. The solution was removed from each well, and then the plate washed three times with PBST. An antibody solution was added to each well, and the plate was incubated at room temperature for 15 minutes. The solution was removed from each well, and then the plate washed three times with PBST. A solution of HRP-labeled anti-human IgG Fc antibody (Bethyl Laboratories, Inc.), HRP-labeled goat F(ab′)2 fragment anti-mouse IgG (H+L) (Beckman Coulter, Inc.) or HRP-conjugated streptavidin (Thermo Fisher Scientific Inc.) diluted to 0.3 μg/mL with 1% BSA/PBS was added to each well, and the plate was incubated at room temperature for 1 hour. The solution was removed from each well, and then the plate washed three times with PBST. Chromogenic reaction was performed using KPL TMB (registered trademark) Peroxidase Substrate (SeraCare Life Sciences, Inc.) and the chromogenic reaction was stopped using KPL TMB (registered trademark) Peroxidase Stop Solution (SeraCare Life Sciences, Inc.). Absorbance at 450 nm was measured using a SpectraMax (registered trademark) 190 microplate reader (Molecular Devices, LLC).

In test [2] the target is T2, human CD20/MS4A1 full-length protein, His tag (HEK293) (ACROBiosystems Inc.) (human, UniProt P11836 1-297).
T2 construct: mature; Bought reagent, coated on the ELISA plate; also called antigen of rituximab; not shown: His tag
T2 sequence (looked up): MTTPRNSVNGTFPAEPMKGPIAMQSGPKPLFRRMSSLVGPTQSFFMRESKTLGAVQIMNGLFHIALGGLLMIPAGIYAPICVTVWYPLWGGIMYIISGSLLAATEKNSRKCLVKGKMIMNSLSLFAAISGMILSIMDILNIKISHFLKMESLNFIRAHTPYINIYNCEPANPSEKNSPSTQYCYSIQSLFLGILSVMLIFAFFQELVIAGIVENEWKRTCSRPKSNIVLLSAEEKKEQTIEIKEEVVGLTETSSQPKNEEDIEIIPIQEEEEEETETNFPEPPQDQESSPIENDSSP
Described as above. The protocol:
as §1

Test [3] has as its target T3, animal free recombinant human IL-6 (PeproTech Inc.) (human, UniProt P05231 30-212).
T3 construct: Bought reagent, coated on the ELISA plate; also called interleukin-6
The test is described as above. As to the method:
as §1

Test [4] addresses T4, recombinant human ErbB2/Her2 Fc chimera (R&D Systems Inc.) (human, UniProt P04626 23-652).
T4 construct: Bought reagent, coated on the ELISA plate; also called antigen of trastuzumab; Fc part of the bought chimera not given
The test is described as follows: ELISA, antigen coated at 5 ug/mL, biotin-labeled antibody, HRP-streptavidin. The protocol: as §1
For orientation: In an ELISA, binding on a coated surface is turned into a signal by an enzyme label.

Substitutions are numbered along the chain they refer to.

B1: R3 variant of anti-IL-8 antibody (antibody, human IgG1, kappa, V domains shown)
VH: EVKLVESGGGLVKPGGSLKLSCAASGFTFNNYAMSWVRQTPEKRLEWVASISSGGNTYYPDSVKGRFTLSRDNARNILYLQMSRLRSEDTAMYYCARDKLRLPNWYFDVWGAGTTVTVSS
VL: DIVLTQSPPSLAVSLGQRATISCKASQSVDYDGDSYMNWYQQKPGQPPKVLIYGASNLESGIPARFRGRGRGTDFTLNIYPVEEEDAATYYCQQSNEDPPTFGGGTKLEIKR
notes: IgG; Light chain positions 63, 65 and 67 (Chothia) are arginine; also called anti-IL-8 antibody R3
With B1, in test [1], the concentration for a half-maximal effect (EC50) – broadly, the concentration at which the effect is half-maximal – is 0.269 µg/mL and the EC50 ratio is 1.4 ratio (EC50 in WT taken as 1.0).

B2: R4 variant of anti-IL-8 antibody (antibody, human IgG1, kappa, V domains shown)
VH: B1 VH
VL: B1 VL with D74R
notes: IgG; Light chain positions 63, 65, 67 and 70 (Chothia) are arginine; also called anti-IL-8 antibody R4
In the case of B2, in test [1], the EC50 was found to be 0.0598 µg/mL and the EC50 ratio is 6.5 ratio (EC50 in WT taken as 1.0).

B3: anti-IL-8 antibody (mouse/human chimeric antibody), light chain FR3 not substituted (antibody, human IgG1, kappa, V domains shown)
VH: B1 VH
VL: B1 VL with R67S, R69S, R71S
notes: also called WT; anti-IL-8 antibody WT
Consider B3, for which, in test [1], the EC50 was 0.39 µg/mL and the EC50 ratio is 1 ratio (EC50 in WT taken as 1.0).

B4: R3 variant of rituximab (antibody, human IgG1, kappa, V domains shown)
VH: QVQLQQPGAELVKPGASVKMSCKASGYTFTSYNMHWVKQTPGRGLEWIGAIYPGNGDTSYNQKFKGKATLTADKSSSTAYMQLSSLTSEDSAVYYCARSTYYGGDWYFNVWGAGTTVTVSA
VL: QIVLSQSPAILSASPGEKVTMTCRASSSVSYIHWFQQKPGSSPKPWIYATSNLASGVPVRFRGRGRGTSYSLTISRVEAEDAATYYCQQWTSNPPTFGGGTKLEIKR
notes: IgG; Light chain positions 63, 65 and 67 (Chothia) are arginine; Heavy chain is that of rituximab; also called rituximab R3
For B4, in test [2], the EC50 came out at 1.71 µg/mL and the EC50 ratio is 74.6 ratio (EC50 in WT taken as 1.0).

B5: R5 variant of rituximab (antibody, human IgG1, kappa, V domains shown)
VH: B4 VH
VL: B4 VL with S69R, S71R
notes: IgG; Light chain positions 63, 65, 67, 70 and 72 (Chothia) are arginine; also called rituximab R5
For the molecule B5, in test [2], the EC50 was 0.027 µg/mL and the EC50 ratio is 4710 ratio (EC50 in WT taken as 1.0).

B6: rituximab (mouse/human chimeric antibody), light chain FR3 not substituted (antibody, human IgG1, kappa, V domains shown)
VH: B4 VH
VL: B4 VL with R62S, R64S, R66S
notes: also called WT; rituximab WT
In test [2], B6 gave a 50% effective concentration (EC50) of 127 µg/mL.

B7: anti-IL-6 antibody (mouse/human chimeric antibody), light chain FR3 not substituted (antibody, human IgG1, kappa, V domains shown)
VH: EVQLQQSGPELVKPGASVKMSCKASGYTFTSYVMHWVKQKPGQGLEWIGYINPYNDGTKYNEKFKGKATLTSDKSSSTAYMELSSLTSEDSAVYYCAREGYGNLERDCWGQGTSVTVSS
VL: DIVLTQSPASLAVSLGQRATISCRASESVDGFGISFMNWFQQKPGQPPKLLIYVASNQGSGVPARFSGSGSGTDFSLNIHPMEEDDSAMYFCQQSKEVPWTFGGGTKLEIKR
notes: also called WT; anti-interleukin (IL)-6 antibody
B7: in test [3], the EC50 came to 0.041 µg/mL and the EC50 ratio is 1 ratio (EC50 in WT taken as 1.0).

B8: R5 variant of anti-IL-6 antibody (antibody, human IgG1, kappa, V domains shown)
VH: B7 VH
VL: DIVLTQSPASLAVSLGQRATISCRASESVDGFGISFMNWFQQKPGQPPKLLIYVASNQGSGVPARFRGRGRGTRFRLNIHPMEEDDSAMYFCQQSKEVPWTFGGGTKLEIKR
notes: IgG; Light chain positions 63, 65, 67, 70 and 72 (Chothia) are arginine; also called anti-IL-6 antibody R5
Consider B8, for which, in test [3], the EC50 worked out at 0.0327 µg/mL and the EC50 ratio is 1.3 ratio (EC50 in WT taken as 1.0).

B9: R3 variant of trastuzumab (antibody, human IgG1, kappa, V domains shown)
VH: not shown
VL: DIQMTQSPSSLSASVGDRVTITCRASQDVNTAVAWYQQKPGKAPKLLIYSASFLYSGVPSRFSGRRRGTRFTLTISSLQPEDFATYYCQQHYTTPPTFGQGTKVEIKR
notes: IgG; Light chain positions 65, 67 and 70 (Chothia) are arginine; Labeled with biotin (Biotin Labeling Kit-NH2) before the ELISA; also called trastuzumab R3
On to B9, for which, in test [4], the EC50 came to 0.0252 µg/mL and the EC50 ratio was 2 ratio (EC50 in WT taken as 1.0).

B10: R4 variant of trastuzumab (antibody, human IgG1, kappa, V domains shown)
VH: not shown
VL: B9 VL with S63R
notes: IgG; Light chain positions 63, 65, 67 and 70 (Chothia) are arginine; Labeled with biotin (Biotin Labeling Kit-NH2) before the ELISA; also called trastuzumab R4
For B10, in test [4], the EC50 was 0.0342 µg/mL and the EC50 ratio was 1.5 ratio (EC50 in WT taken as 1.0).
